From the supplement of paper PMC10567573
± gives the standard deviation.

Experiment: protein stability index of a GFP-peptide fusion (GPS, HEK-293T) (PSI 1-6); higher = more stable
[1] = treatment: DMSO, c terminus: a fixed tail appended
[2] = treatment: MLN4924 1 uM, 8 h, c terminus: a fixed tail appended
[3] = treatment: DMSO, c terminus: native
[4] = treatment: MLN4924 1 uM, 8 h, c terminus: native
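Also: 24-mer peptide tiles fused after GFP, lentivirally expressed, FACS-sorted into six equal bins by GFP/DsRed ratio, decoded by Illumina sequencing, PSI is the read-weighted mean bin number.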

Sequence	protein stability index [1]	protein stability index [2]	protein stability index [3]	protein stability index [4]
REHVCRKDQRNPPSLGRVLPDPRE [RBMY1A1]	4.69 ± 0.22	4.8 ± 0.24	–	–
FPAEQYYRFHEHWRFVLQRLVFLA [TSN]	2.44 ± 0.42	2.22 ± 0.27	–	–
TVCDDKWDLVSASVVCRELGFGSA [LOXL2]	2.54 ± 0.49	2.7 ± 0.2	–	–
SSSINSPDRASGPEGSLSQTMAGS [FAM104A]	5 ± 0.16	5.04 ± 0.1	–	–
LVADLLYWKDTRTSGVVFTGLMVS [RTN2]	3.17 ± 0.46	3.03 ± 0.4	–	–
PQEPRPPKRATKPKKAPKREKSAP [CPXM2]	5.14 ± 0.46	5.42 ± 0.18	–	–
RADEPQWSLYPSDSQVSEEVKTRH [CHGB]	5.18 ± 0.068	5.18 ± 0.064	–	–
EVLSLGVQVPEAWEELLTMKVEAK [ZSCAN9]	3.53 ± 0.67	3.45 ± 0.22	–	–
MPSETLWEIAKAEVEKRGINGSEG [DYNC2LI1]	4.88 ± 0.15	5.1 ± 0.1	–	–
FRGRRDVSGSWERDQQVEAAQRAL [RETREG3]	4.48 ± 0.27	4.28 ± 0.23	–	–
HKLQEEKAFREEMKIFREKIEDFR [CCDC70]	3.38 ± 0.3	3.61 ± 0.31	–	–
ESGLGHFSLRVHTGCHKKLGPEAR	3.24 ± 0.46	3.32 ± 0.24	–	–
SWFDNGSICMRMEILGCPLPDPNN [CPXM2]	2.09 ± 0.089	2.3 ± 0.47	–	–
QMLLNVEANSAKVQEDLEAEFQSL [FSD1]	4.92 ± 0.21	4.96 ± 0.2	–	–
FIDGKFLPCSSYIDSYDPSTGEVY [ALDH8A1]	2.44 ± 1.2	2.66 ± 0.11	–	–
AETAGAIMAFFLCLGLALGAVFSF [SLC29A1]	3.35 ± 0.66	3.03 ± 0.24	–	–
ILLKVKTEIEEELKSLDKEISEAF [BCL2L13]	2.75 ± 0.36	3.19 ± 0.33	–	–
NLKQLRKRGSIPTSLTALSLASAS [PPFIA4]	3 ± 0.15	3.09 ± 0.24	–	–
LVPALRLPGRKLVSSAVSPSIIPQ [INTS4]	2.48 ± 0.31	2.46 ± 0.26	–	–
SNYFSMDSMEGKRSPYAGLQLGAA [TRIM29]	2.88 ± 0.3	2.99 ± 0.22	–	–
SPEPPSLYGALNPQYEFKEAAGSF [IRX6]	3.47 ± 0.24	3.6 ± 0.22	–	–
RFYLPLLIHQHEKVIYLDDDVIVQ [GLT8D2]	2.32 ± 0.56	1.97 ± 0.25	–	–

Sequence	protein stability index [1]	protein stability index [2]	protein stability index [3]	protein stability index [4]
DYIIRNTDRGNDNWLIKYDCPMDS [PI4K2A]	2.81 ± 0.25	2.88 ± 0.12	–	–
YSSGEFSSGRKWGDDAPKEEVDTG [INTS4]	3.1 ± 0.48	3.97 ± 0.56	–	–
EYHQPQAPANVAKIQLRLAGQKRK [LOXL2]	4.34 ± 0.43	4.54 ± 0.4	–	–
YYSDKYDDEEFEYRHVMLPKDIAK [CKS1B]	3.81 ± 0.12	3.91 ± 0.14	–	–
FAQRTFDYELLQMLQIVVGVRDSG [PCDHGC5]	3.01 ± 0.53	2.74 ± 0.84	–	–
AWLEGRIRQEFDKLREFLRVEEQA [TRIM35]	2.81 ± 0.4	2.94 ± 0.5	–	–
FYDKQLKVLLSGATFLVTFGNSEK [ZFYVE21]	2.45 ± 0.67	2.54 ± 0.54	–	–
GSLDLVPGGLTLEEHSLEQVQSMV [SPDEF]	4.35 ± 0.38	4.66 ± 0.21	–	–
SAQYSQQLQAARNEYLLNLVATNA [FCHSD1]	2.71 ± 0.11	2.77 ± 0.18	–	–
LRVISDEGGWWKAISLSTGRESYI [SLA]	–	1.88 ± 0.22	–	–
GLLNDTSAPHLENSGHTIFNDPFF [KCNA4]	4.17 ± 0.19	4.28 ± 0.28	–	–
VDTLTFQSQSLRDRARRFEEALRK [MTUS2]	4.08 ± 0.2	4.14 ± 0.22	–	–
NLLQPNFEAAFGTTPSTSSSSSFD [SNAP91]	4.11 ± 0.093	4.08 ± 0.046	–	–
LCNLGKERFLELAPDFVGDILWEH [ETS2]	2.46 ± 0.26	2.28 ± 0.61	–	–
YFATFYSCTPRMNRRMVGPDVIPL [FAM189A2]	2.72 ± 0.27	2.54 ± 0.55	–	–
PKPSVLFLHPDLGVGGAERLVLDA [ALG2]	3.23 ± 0.29	3.15 ± 0.23	–	–
IANCKLFRLQLQQGLFRIRVHSP [GAN]	–	–	3.45 ± 0.51	2.6 ± 0.38
YETVAAATSESTTVEPGKLDVGAT [DRICH1]	5.36 ± 0.2	5.43 ± 0.32	–	–
LLLPGIYTVSATAPGYDPETVTVT [CPN1]	2.16 ± 0.22	2.17 ± 0.31	–	–
PLSAVYRICLGKFTFPGMSLDKRQ [TPRG1]	2.23 ± 0.46	2.24 ± 0.22	–	–
GGNPFAEPSELDNPFQDPAVIQHR [SCAMP3]	4.67 ± 0.14	4.98 ± 0.17	–	–
LQDGNLRAPHKESTLPRSGSSGGQ [CHCHD6]	5.03 ± 0.12	4.95 ± 0.31	–	–

Sequence	protein stability index [1]	protein stability index [2]	protein stability index [3]	protein stability index [4]
KESLCAKEEKCQGKGDDSETDKNN [KCNA4]	5.62 ± 0.16	5.42 ± 0.1	–	–
SPEVLTPQLSPGSGTPQAGTPSPS [RTN2]	5.39 ± 0.31	5.45 ± 0.2	–	–
SGDDKNSNYFSMDSMEGKRSPYAG [TRIM29]	4.5 ± 0.25	4.61 ± 0.24	–	–
ADAVNLTIPASLDLSPLLGFWQLP [PLAGL1]	2.28 ± 0.27	2.28 ± 0.23	–	–
GASFTQKGNLLRHIKLHSGEKPFK [IKZF1]	3.77 ± 0.23	3.72 ± 0.28	–	–
MEREFNNLLALGTDRKLDDGDDKV [PPFIA4]	5.47 ± 0.32	5.34 ± 0.58	–	–
REISETEAKALLKERQKKDNHNLI [TFE3]	5 ± 0.23	5.1 ± 0.16	–	–
QSLDQEILLKVKTEIEEELKSLDK [BCL2L13]	4.51 ± 0.42	4.93 ± 0.24	–	–
KEEREDTPIQLQELLALETALGGQ [TCAP]	5.17 ± 0.24	5.04 ± 0.14	–	–
VSGGSRSLNMSRRDSESTRHDSET [PHTF1]	5.25 ± 0.26	5.5 ± 0.14	–	–
HCWDVAGAGIIVTEAGGVLMDVTG [IMPA1]	2.4 ± 0.25	2.52 ± 0.51	–	–
SLRKAIETVYAAYLPKNTHPFLYL [MLH1]	3.76 ± 0.68	–	–	–
VGDALEEVLSKALSQRTITVGVYE [GADD45A]	2.54 ± 0.19	2.47 ± 0.56	–	–
GTTYLPGIVGLNNIKANDYANAVL [USP39]	2.47 ± 0.097	2.44 ± 0.23	–	–
LSVEADINGLRRVLDELTLARADL [KRT17]	2.66 ± 0.26	3.04 ± 0.43	–	–
FVTGNCLEISPDCSQYDRVYCGAG [PCMTD2]	2.43 ± 0.19	2.33 ± 0.14	–	–
KINAWDLYYYMTQTEELKYSIDQE [NLN]	2.34 ± 0.3	2.19 ± 0.35	–	–
TDKLVTPGKYFSAAEYHAQRLKAV [IQUB]	3.4 ± 0.21	3.19 ± 0.31	–	–
RELTGLKALYETELADARRALDDT [LMNB1]	4.76 ± 0.31	4.77 ± 0.094	–	–
PYDLHLRSQSLTMQDELNAVFHN [NEUROD6]	–	–	3.44 ± 0.22	3.71 ± 0.15
STQEPQSPREGEELKPEDKDPRDP [GNAS]	5.59 ± 0.34	5.42 ± 0.48	–	–
